According to patent US10538583 (dated 2020):
Where a chain is given by its changes, count along the chain named.

B1: mAb2 (antibody, V domains shown)
VH: QLVESGGGLVQPGGSLRLSCAASGFTFGTYSMRWVRQVPGKGLEWVSSIHTEGGGTAYRDSVKGRFTISRDNAKNTLYLQMNSLRAEDTAIYYCVIAGYSDWGQGTLVTVSS
VL: DIVMTQSPLSLPVTPGESASISCKTSQGLVHSDGKTYFYWFLQKPGQSPQQLIYQVSNRASGVPDRFSGSGSGTDFTLKISRVKAEDAGVYYCAHGTYYPHTFGQGTRLEIK
B2: mAb18 (antibody, V domains shown)
VH: B1 VH with G28S, V38A, G53A, S83N, I91V
VL: B1 VL with S18P, D33G, S68T, K84E
B3: mAb15 (antibody, V domains shown)
VH: B1 VH with V38A, G53A, S83N, R85K, L107Q
VL: B1 VL with D33G, S68T, K84E, H95Q, Q105S
B4: mAb8 (antibody, V domains shown)
VH: B1 VH with G28S, V38A, E52D, G53A, S83N, I91V
VL: B1 VL with P12S, T14V, S18P, K84E, A88V
B5: mAb5 (antibody, V domains shown)
VH: B1 VH with V38A, I91V
VL: B1 VL with S68T
B6: mAb20 (antibody, V domains shown)
VH: B1 VH with G28S, V38A, E52D, G53A, S83N, A86P, I91V
VL: B1 VL with L9G, P12S, S18P, D33G, S68T, R82G, K84E
B7: mAb19 (antibody, V domains shown)
VH: B1 VH with G28S, V38A, E52D, G53A, S83N, A86P, I91V
VL: B1 VL with L9G, P12S, S18P, D33G, S68T, R82G, K84E, H95Q
B8: 5E5VH5_VL8 IgG1 (antibody, V domains shown)
VH: QLQLVESGGGLVQPGGSLRLSCAASGFTFGTYSMRWVRQVPRKALEWVSSIHTDGGGTAYRDSVKGRFTISRDNAKNTLYLQMNNLKPEDTAIYYCVIAGYSDWGQGTQVTVSS
VL: B1 VL with D1A, I2T, V3M, M4L, L9G, P12S, T14V, S68T, R82G, Q105S
B9: mAb4 (antibody, V domains shown)
VH: B1 VH with V38A
VL: B1 VL
B10: mAb7 (antibody, V domains shown)
VH: B1 VH with G28S, V38A, E52G, S83N
VL: B1 VL
B11: mAb1 (antibody, V domains shown)
VH: B1 VH
VL: B1 VL with S68T
B12: mAb13 (antibody, V domains shown)
VH: B1 VH with V3L, G28S, A73S, I91V
VL: B1 VL with S18P, F41Y, Q51L, K84E, A88V
B13: 5E5WT (5E5) IgG1 (antibody, V domains shown)
VH: B8 VH with H52S
VL: ATMLTQSPGSLSVVPGESASISCKTSQGLVHSDGKTYFYWFLQKPGQSPQQLIYQVSNRASGVPDRFTGSGSGTDFTLKISGVKAEDAGVYYCAQGTYYPHTFGSGTRLEIK
B14: mAb11 (antibody, V domains shown)
VH: B1 VH with G28S, S83N, I91V
VL: B1 VL with P12S, S18P, K84E, A88V
B15: mAb3 (antibody, V domains shown)
VH: B1 VH with V38A
VL: B1 VL with S68T
B16: mAb10 (antibody, V domains shown)
VH: B1 VH with G28S, S83N, I91V
VL: B1 VL with P12S, T14V, S18P, K84E, A88V
B17: mAb9 (antibody, V domains shown)
VH: B1 VH with G28S, V38A, E52D, G53A, S83N, I91V
VL: B1 VL with P12S, S18P, K84E, A88V
B18: mAb17 (antibody, V domains shown)
VH: B1 VH with G28S, V38A, G53A, S83N, I91V
VL: B1 VL with S18P, D33G, S68T, K84E, H95Q
B19: mAb14 (antibody, V domains shown)
VH: B1 VH with V3L, A73S, I91V
VL: B1 VL with S18P, F41Y, Q51L, K84E, A88V
B20: mAb6 (antibody, V domains shown)
VH: B1 VH with V38A, I91V
VL: B1 VL
B21: mAb16 (antibody, V domains shown)
VH: B1 VH with V38A, G53A, S83N, R85K, L107Q
VL: B1 VL with D33G, S68T, K84E, Q105S
B22: mAb12 (antibody, V domains shown)
VH: B1 VH with G28S, E52D, G53A, A86P
VL: B1 VL with P12S, S18P, S68T, A88V
B23: 5E5WT scFv-Fc (antibody, V domains shown)
VH: B8 VH with H52S
VL: B13 VL
B24: 5E5VHWT_VL8 scFv-Fc (antibody, V domains shown)
VH: B8 VH with H52S
VL: B13 VL with Q95H
B25: 5E5VH5_VLWT scFv-Fc (antibody, V domains shown)
VH: B8 VH
VL: B13 VL
B26: 5E5VH12_VLWT scFv-Fc (antibody, V domains shown)
VH: B8 VH with H52S, A99H
VL: B13 VL
B27: 5E5VH5VH12_VLWT IgG1 (antibody, V domains shown)
VH: B8 VH with A99H
VL: B13 VL
B28: 5E5VHWT_VL8 IgG1 (antibody, V domains shown)
VH: B8 VH with H52S
VL: B13 VL with Q95H
B29: 5E5VH5_VLWT IgG1 (antibody, V domains shown)
VH: B8 VH
VL: B13 VL
B30: 5E5VH12_VL8 IgG1 (antibody, V domains shown)
VH: B8 VH with H52S, A99H
VL: B13 VL with Q95H
B31: 5E5VH12_VLWT IgG1 (antibody, V domains shown)
VH: B8 VH with H52S, A99H
VL: B13 VL
B32: 5E5VH5VH12_VL8 IgG1 (antibody, V domains shown)
VH: B8 VH with A99H
VL: B13 VL with Q95H

Each binder was assayed against human ApoC3 (human) (assay: SPR pH 5.5).
human ApoC3 (human), sequence (chain, as listed by the source): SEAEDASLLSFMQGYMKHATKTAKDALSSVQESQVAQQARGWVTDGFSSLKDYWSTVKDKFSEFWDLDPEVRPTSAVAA

Binder | Kd [nM]
B1 | 0.283
B2 | 8.62
B3 | 0.353
B4 | 0.749
B5 | 0.345
B6 | 9.44
B7 | 0.417
B8 | 11.4
B9 | 0.374
B10 | 4.89
B11 | 0.237
B12 | 5.56
B13 | 0.0499
B14 | 0.331
B15 | 0.351
B16 | 0.27
B17 | 0.759
B18 | 0.342
B19 | 21.3
B20 | 0.347
B21 | 7.44
B22 | 0.139

Biological target: human ApoC3 (human)
Test: SPR pH 5.5
Remark: another data set of the same source

Binder | Kd [nM]
B23 | 0.06
B24 | 4.29
B25 | 10.9
B26 | 16

Biological target: human ApoC3 (human)
Test: SPR pH 5.5
Remark: another data set of the same source

Binder | Kd [nM]
B27 | 20.2
B28 | 0.0556
B29 | 1.31
B8 | 11.4
B30 | 8.79
B13 | 0.0499
B31 | 1.02

These binders were tested against human ApoC3 (human) (assay: SPR pH 7.4).

Binder | Kd [nM]
B23 | 0.02
B24 | 0.58
B25 | 0.59
B26 | 0.51

Biological target: human ApoC3 (human)
Test: SPR pH 7.4
Remark: another data set of the same source

Binder | Kd [nM]
B1 | 0.0552
B2 | 1.33
B3 | 0.00538
B4 | 0.102
B5 | 0.148
B6 | 0.586
B7 | 0.0453
B8 | 0.975
B9 | 0.00464
B10 | 0.0928
B11 | 0.0454
B12 | 4.19
B13 | 0.0512
B14 | 0.173
B15 | 0.11
B16 | 0.0956
B17 | 0.149
B18 | 0.0464
B19 | 2.96
B20 | 0.0599
B21 | 0.687
B22 | 0.0655

Biological target: human ApoC3 (human)
Test: SPR pH 7.4
Remark: another data set of the same source

Binder | Kd [nM]
B27 | 4.96
B28 | 0.0363
B29 | 0.211
B8 | 0.975
B30 | 0.609
B13 | 0.0512
B32 | 22.4
B31 | 0.0351

Biological target: human ApoC3 (human)
Test: SPR pH 5.5
Remark: another data set of the same source

Binder | binding result
B32 | no binding

What follows are binders tested against human ApoC3 (human) (assay: SPR pH 5.5, antibody immobilized).

Binder | Kd [nM]
B1 | 290
B3 | 86.2
B4 | 242
B5 | 408
B7 | 157
B9 | 432
B10 | 583
B11 | 253
B14 | 503
B15 | 323
B16 | 334
B17 | 541
B18 | 257
B20 | 861
B22 | 343

These binders were tested against human ApoC3 (human) (assay: SPR pH 7.4, antibody immobilized).

Binder | Kd [nM]
B1 | 103
B2 | 509
B3 | 34.7
B4 | 241
B5 | 181
B6 | 1340
B7 | 35.5
B8 | 298
B9 | 124
B10 | 247
B11 | 73.9
B12 | 1000
B14 | 129
B15 | 174
B16 | 189
B17 | 232
B18 | 62.4
B19 | 1760
B20 | 165
B21 | 596
B22 | 321
